Columns and labels:
[1] = system: M960618 melanoma cells (Ndr activity); assay: W-7 effect on Ndr activity in S100B-positive melanoma cells; type: cell-based; conditions: Homo sapiens, 1.25 h; read-out: reduction of Ndr activity
[2] = system: S100 proteins, including S100B; conditions: cited from earlier work
HA-Ndr WT = conditions: 1 μM, 1 h
Method: COS-1 cells expressing HA-Ndr WT (as in Example 5) are treated either with solvent alone (Control) or with a panel of cell permeable protein phosphatase inhibitors. The cells are then extracted, HA-Ndr is immunoprecipitated with the anti-HA mAb 12CA5, and the kinase activity of Ndr measured as before, using the peptide substrate.

HA-Ndr = assay: in vitro incubation of immunoprecipitated HA-Ndr with PP2A; type: biochemical; conditions: PP2A plus 100 nM okadaic acid
Method: In order to provide evidence that PP2A directly interacts with and thereby affects Ndr activity, HA-Ndr is immunoprecipitated from cells treated with 20 μM A23187 or with solvent alone for 5 min. In parallel, HA-Ndr is immunoprecipitated from cells treated with 1 μM okadaic acid or solvent alone ("Control") for 1 h. Each immunoprecipitate is then incubated in vitro for 1 h with either buffer alone, with purified PP2A (dimeric form consisting of catalytic subunit and 65 kDa regulatory subunit) or with PP2A plus 100 nM okadaic acid. Thereafter, the immunoprecipitates are washed and assayed for Ndr peptide kinase activity as described in Example 5.

PP2A = conditions: concentrations used in cells (okadaic acid 1 μM, cyclosporin A 1 μM); cited from earlier work
[3] = system: protein phosphatase 1 (PP1); conditions: concentrations used in cells; cited from earlier work
S100B-Ndr = assay: inhibition of binding of S100B to Ndr
GST-Ndr [4] = target: T1, GST-Ndr (Homo sapiens, UniProt Q15208); assay: preincubation of immobilised GST-Ndr followed by peptide kinase assay; type: biochemical
T1 construct: made in house
T1 sequence (Q15208 whole entry): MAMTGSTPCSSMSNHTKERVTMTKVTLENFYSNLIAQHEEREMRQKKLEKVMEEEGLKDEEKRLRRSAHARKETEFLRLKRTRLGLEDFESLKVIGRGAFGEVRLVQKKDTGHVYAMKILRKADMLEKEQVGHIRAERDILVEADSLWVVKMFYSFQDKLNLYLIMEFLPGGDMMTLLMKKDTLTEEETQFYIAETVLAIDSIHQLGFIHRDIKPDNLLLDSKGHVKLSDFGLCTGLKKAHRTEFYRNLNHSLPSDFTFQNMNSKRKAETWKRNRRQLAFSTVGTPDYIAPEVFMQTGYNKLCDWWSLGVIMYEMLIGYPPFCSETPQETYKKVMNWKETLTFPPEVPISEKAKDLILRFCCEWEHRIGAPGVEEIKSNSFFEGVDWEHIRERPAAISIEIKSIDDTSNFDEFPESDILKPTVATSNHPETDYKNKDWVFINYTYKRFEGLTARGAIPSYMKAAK
Method: Activation of Ndr by S100B appears to be independent of kinase autophosphorylation. However, increased autophosphorylation is observed: GST-Ndr is immobilised on agarose and preincubated with or without Ca^2+ -S100B, in the presence or absence of Mg-ATP (to either allow or not allow autophosphorylation). The agarose beads are then washed and assayed for Ndr activity as set out herein with radiolabelled ATP and peptide substrate, and in the presence or absence of Ca^2+ -S100B. Preincubation of GST-Ndr with Mg-ATP alone increases its peptide kinase activity, showing that autophosphorylation activates Ndr. […] Preincubation with Ca^2+ S100B alone has no effect, because activation by Ca^2+ -S100B in the preincubation step is mediated by Ndr autophosphorylation.
Ca^2+ -S100B increases the rate Ndr autophosphorylation by 2.5-fold, and it increases autophosphorylation-dependent Ndr activation by 2-fold. However, the total activation of Ndr by Ca^2+ -S100B is larger than this (5- to 10-fold). Thus, the increased autophosphorylation of Ndr caused by Ca^2+ -S100B is not by itself sufficient to account for Ndr activation. In addition, Ca^2+ -S100B probably stimulates Ndr kinase activity directly, in an autophosphorylation-independent manner.

Ndr Δ65-81 = assay: immune complex kinase assay with S100B and Ca^2+, Ndr deletion of amino acids 65-81; type: biochemical, human
Method: (§1) In immune complex kinase assays and autophosphorylation assays (see below), COS-1 cells are transfected as described above or with pECE-Ndr-K118A. After 72 h, cells are washed with ice-cold PBS and lysed in lysis buffer (20 mM Tris-HCl pH 8.0, 150 mM NaCl, 1% (v/v) NP-40, 10% (v/v) glycerol, 5 mM EDTA, 0.5 mM EGTA, 0.5 mM phenylmethyl-sulfonyl fluoride, 4 μM leupeptin, 1 mM benzamidine, 1 μM microcystin and 1 mM Na3 VO4). Lysates are centrifuged at 14,000 g for 20 min. Duplicate aliquots of supernatant (250 μg, 2.5 mg/ml) are incubated for 2 h at 0° C. with 10 μg/ml Ab^1-465. Immune complexes are precipitated by addition of 2 μl protein A-Sepharose (Pharmacia) and mixing for 1 h. The beads are then washed twice with lysis buffer, once with lysis buffer containing 1 M NaCl, with lysis buffer again, and finally twice with 20 mM Tris-HCl pH 7.5. Beads are resuspended in 30 μl buffer containing 20 mM Tris-HCl pH 7.5, 10 mM MgCl2, 100 μM CaCl2, 1 mM dithiothreitol, 100 μM [γ-^32 P] ATP (0.5 μCi/μls), 1 mM Ndr substrate peptide ([…], SEQ. ID. No. 1), 1 μM cAMP-dependent protein kinase inhibitor peptide (PKI; purchased from Bachem, Bubendorf, Swit zerland), 4 μM leupeptin, 1 mM benzamidine, 1 μM microcystin and, in some assays, 20 μM bovine S100B. After 60 min at 30° C., phosphate incorporation into the peptide is quantitated as described above. […]

Ndr Δ1-84 = assay: immune complex kinase assay with S100B and Ca^2+, Ndr lacking amino terminal domain; type: biochemical, human
Method: as §1

Ndr = Ndr activity in cell lines with and without S100B expression; type: cell-based, human; conditions: p<0.05, two-tailed Students' t test
Method: COS cells are transfected with pECE-Ndr or with empty vector (pECE). 20 μg of these extracts are immunoprecipitated with anti-Ndr (which has been covalently cross-linked to protein A-Sepharose using dimethyl pimelimidate). 400 μg of extract from HeLa cells is immunoprecipitated in parallel. The immunoprecipitates are separated by SDS-PAGE and then immunoblotted using biotinylated anti-Ndr and streptavidin-peroxidase. […] A band of ~53 kDa is also present in HeLa and COS-1 cells and probably represents a proteolytic fragment of full-length Ndr.
Using the method described above, the 12 cell lines are analysed for Ndr abundance. The amount of Ndr (in ng per 400 μg cell extract) is quantitated by densitometry of the blots, and comparison with blots containing known amounts of GST-Ndr. The same cell lines are also assayed for the presence or absence of S100B, by immunoprecipitation of cell extracts with anti-S100B, followed by immunoblotting of the precipitates.

GST-Ndr [5] = target: T1, GST-Ndr; assay: GST-Ndr peptide kinase assay with calcium-binding proteins; type: biochemical
Method: 1 μg GST-Ndr WT or GST-Ndr K118A, either in solution or immobilised on glutathione-agarose beads, is assayed in a 20 μl reaction containing 20 mM Tris-HCl pH 7.5, 5 mM MgCl2, 1 mM dithiothreitol, 100 μM [γ-^32 P] […] Reactions are supplemented with either 2 mM EGTA or various concentrations of CaCl2. Bovine CaM, bovine S100B (both from Sigma) or recombinant calcium-binding proteins. After incubation at 30° C. for 60 min, aliquots of the reaction are spotted on to P81 phosphocellulose paper and counted as above.
In brief, coding regions are cloned into the PGEMEX expression vector (Promega) and resultant plasmids used to transform E. coli BL-21 LysS cells. After induction, S100 proteins are purified by ammonium sulphate precipitation followed by Ca^2+ -dependent phenyl-Sepharose chromatography.
The proteins are added together with Ca^2+ into GST-N dr peptide kinase assays. The proteins tested comprised S100A1 (S100α), S100A2 (S100L), S100A4 (CAPL), S100A6 (calcyclin) and S100B (S100β); α-parvalbumin is included as a negative control.
In order to estimate the binding affinity of S100B for Ndr, kinase assays are performed in which GST-Ndr is mixed with various concentrations of purified bovine S100B homodimer, in the presence or absence of calcium.
To determine whether activation of Ndr by S100B occurs at physiological Ca^2+ concentrations, Ndr activity is assayed with or without added S100B over a range of Ca^2+ concentrations.

GST-Ndr [6] = target: T1, GST-Ndr; assay: Ndr autophosphorylation assay; type: biochemical
Method: In immune complex kinase assays and autophosphorylation assays (see below), COS-1 cells are transfected as described above or with pECE-Ndr-K118A. After 72 h, cells are washed with ice-cold PBS and lysed in lysis buffer (20 mM Tris-HCl pH 8.0, 150 mM NaCl, 1% (v/v) NP-40, 10% (v/v) glycerol, 5 mM EDTA, 0.5 mM EGTA, 0.5 mM phenylmethyl-sulfonyl fluoride, 4 μM leupeptin, 1 mM benzamidine, 1 μM microcystin and 1 mM Na3 VO4). Lysates are centrifuged at 14,000 g for 20 min. Duplicate aliquots of supernatant (250 μg, 2.5 mg/ml) are incubated for 2 h at 0° C. with 10 μg/ml Ab^1-465. Immune complexes are precipitated by addition of 2 μl protein A-Sepharose (Pharmacia) and mixing for 1 h. The beads are then washed twice with lysis buffer, once with lysis buffer containing 1 M NaCl, with lysis buffer again, and finally twice with 20 mM Tris-HCl pH 7.5. […] After 60 min at 30° C., phosphate incorporation into the peptide is quantitated as described above.
The proteins are added together with Ca^2+ into GST-N dr peptide kinase assays. […] The increased kinase activity observed in the presence of S100A1 and S100B is not due to contaminating kinase activity, because no activity is recorded when kinase-negative GST-Ndr, containing a point mutation (Lys^118→Ala) in the ATP binding pocket, is used in place of wild-type GST-Ndr. […]

wild-type Ndr = assay: immune complex kinase assay with S100B and Ca^2+, wild-type Ndr; type: biochemical, human; conditions: Ca^2+ -S100B
Method: as §1

**Q.** Which results are given for `NCCCCCCNS(=O)(=O)c1cccc2c(Cl)cccc12` [W-7]?
**A.** inhibition at 50 µM [1]: ~80%; binding to S100 proteins [2]: binds to several S100 proteins, including S100B, in a Ca^2+ -dependent manner

**Q.** For `C=C1[C@@H](O)[C@@H]2O[C@]3(CC[C@H](/C=C/[C@@H](C)[C@@H]4CC(C)=C[C@@]5(O[C@H](C[C@@](C)(O)C(=O)O)CC[C@H]5O)O4)O3)CC[C@H]2O[C@@H]1[C@@H](O)C[C@H](C)[C@H]1O[C@@]2(CCCCO2)CC[C@H]1C` [okadaic acid], which “activation of Ndr” value (HA-Ndr WT) is on record?
**A.** Its value is ~ 8 fold.

**Q.** And the “prevention of inactivation of HA-Ndr by PP2A” value (HA-Ndr)?
**A.** Its value is “inactivation is prevented”.

**Q.** And the “inhibition of intracellular PP2A” value (PP2A)?
**A.** Its value is “completely inhibits intracellular PP2A”.

**Q.** And the “effect on PP1” value [3]?
**A.** The value was “does not affect protein phosphatase 1 (PP1)”.

**Q.** For “KRLRRSAHARKETEFLRLKRTRLGL [SEQ ID No.32]”, which “inhibition of binding of S100B to Ndr” value (S100B-Ndr) is on record?
**A.** The value was “effectively inhibit binding of S100B to Ndr”.

B1: S100B: EF hand calcium-binding protein of the S100 family; bovine S100B homodimer or recombinant (protein, UniProt P02638 2-92, looked up)
Protein S100-B: SELEKAVVALIDVFHQYSGREGDKHKLKKSELKELINNELSHFLEEIKEQEVVDKVMETLDSDGDGECDFQEFMAFVAMITTACHEFFEHE
**Q.** With B1 as the molecule, how does the “increase in autophosphorylation-dependent Ndr activation” value (GST-Ndr [4]; Ca^2+ -S100B) read?
**A.** The value was 2 fold.

**Q.** And the “peptide kinase activity after preincubation” value (GST-Ndr [4]; preincubation with Ca^2+ -S100B alone)?
**A.** The value was “no effect”.

**Q.** What about the “peptide kinase activity after preincubation” value (GST-Ndr [4]; preincubation with Mg-ATP and Ca^2+ -S100B) of the same molecule?
**A.** Its value is “even greater autoactivation of the peptide kinase activity”.

**Q.** And the “sensitivity to S100B” value (Ndr Δ65-81)?
**A.** The value was “ablated its sensitivity to S100B”.

**Q.** What about the “response to S100B” value (Ndr Δ1-84) of the same molecule?
**A.** Its value is “failed to respond to S100B”.

**Q.** And the “Ndr average specific activity, S100B-positive versus S100B-negative cell lines” value (Ndr)?
**A.** Its value is ~ 2 fold.

**Q.** And the “maximal activation of Ndr” value (GST-Ndr [5]; 2 mM EGTA, without calcium)?
**A.** The value was “much lower”.

**Q.** What about the “activation of Ndr in the absence of calcium” value (GST-Ndr [5]; absence of calcium) of the same molecule?
**A.** The value was “partial activation of Ndr in the absence of calcium”.

**Q.** What about the “increase in Ndr kinase activity” value (GST-Ndr [5]; added together with Ca^2+, 60 min, 30° C.) of the same molecule?
**A.** The value was 5-6 fold.

**Q.** What about the “maximal activation of Ndr” value (GST-Ndr [5]; presence of calcium, bovine S100B homodimer) of the same molecule?
**A.** Its value is ~ 7 fold.

**Q.** What about the Ndr autophosphorylation (GST-Ndr [6]) of the same molecule?
**A.** The Ndr autophosphorylation was “stimulated Ndr autophosphorylation”.

**Q.** What about the “increase in rate of Ndr autophosphorylation” value (GST-Ndr [6]; Ca^2+ -S100B) of the same molecule?
**A.** The value was 2.5 fold.

**Q.** And the “degree of activation of immunoprecipitated Ndr” value (wild-type Ndr)?
**A.** The value was ~ 2 fold.

Reference: patent publication US6258776A, “Calcium-regulated kinase” (priority 1997, dated 2001)
